Laboratory results taken from the nanobody polyreactivity screen of Harvey et al. (2022).

Experiment: yeast display, Sf9 membrane polyspecificity reagent, FACS + sequencing; frameworks hold sequencing errors
Outline: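 Galactose-induced (36–48 hours) yeast carrying a synthetic nanobody display library were exposed to 10% biotinylated, detergent-solubilized Sf9 membrane reagent at 4 °C for 1 hour. FACS followed streptavidin microbead enrichment, using low and high (top ~1%) gates for expression (anti-HA) and reagent binding (streptavidin). Colony PCR, MiSeq 2 × 250 sequencing and CDR-length filtering followed. Labels for polyreactivity reflect the gate of origin.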

| Sequence | polyreactivity (PSR sort gate) |
| --- | --- |
| QVQLVESGGGLVQAGGSLRLSCAASGRIFYQNAMGWYRQAPGKERELVAAISSSGDSTYADSVKGRFTISRDNAKNTVYLQMNSLKPEDTAVYYCAAGVGWEFDYWRQGTQVTVSS | low polyreactivity |
| QVQLVESGGGLVQAGGSLRLSCAASGITFTLYAMGWYRQAPGKERELVASISWSGGSTYYADSVKGRFTISRDNAKNTVYLQMNSLKPEDTAVYYCNAVYARKYYYSHGYDYWGQGTQVTVSS | high polyreactivity |
| QVQLVESGGGLVQAGGSLRLSCAASGTMPGYAMGWYRQAPGKERELVAAITWSDDSTFYADSVKGRFTISRDNAKNTVYLQMNSLKPEDTAVYYCAAEYVVSTQEFDYCGQGTQVTVSS | low polyreactivity |
| QVQLVESVGGLVQAGGSLRLSCAASGSTFGYYAMGWYRQAPGKERELVATITWSGGSTNYGDSVKGRFTISRDNEKNTVYLQMKSLKPEDTAVYYCAADLKYWYFGLAFIEVDYWGQGTQVTVSS | low polyreactivity |
| QVQLVESGGGIVQAGGSLRLSCAASGGTFPRYAKGWYRQAPGKEREFVAAISGSGGSTYYADSVKGRFTISRDNAKNTVLLQMNSLKPEDTAVYYCNKVPVYTPSYYWGQGSQVTVSS | low polyreactivity |
| QVQLVESGGGLVQAGGSLRLSCAASGYILRRNAMGWYRKAPGKERELVARINSSGGSTYYADSVKGRFTISRDNAKNTVYLQMNSLKPEDTAVYYCAKSYYRGRDYWGQGTQVTVSS | high polyreactivity |
| QVQLVESGGGLVQAGGSLRLSCAASGRTFIRYAMGWYRQAPGKERELVAAISWSGDRTYYADSVKGRFTISRDNAKNTVYLQMNSLKPEDTAVYYCNAYRYLRTATFLKFDYWGQGTQVTVSS | high polyreactivity |
| QVQLVESGGGLVQAGGRLRFSCAASGSNFPVYAMGWYRHAPGKERELVADITYTTGSTYYADSVKGRFTISRDNAKNTVYLQMHSLKPEDTGVYYCNARDYTWYLHLGYSTLYWGQGTQVTVSS | low polyreactivity |
| QVQLVESGGGLVQAGGSLRLSCAASGRTFVYNAMGWYRQAPGNERELVAAITSGGRTYYADSVKGRFTISRDNAKNTVYLQMNSLQPEDTAVYYCAKRFWFNTYAAHPAGFDYWGQGTQVTVSS | low polyreactivity |
| QVQLVESGGGLVQAGGSLRLSCAASGRIFSAYAMGWYRQAPGKERELVAAISRSGGRTYYADSVKGRFTISRDNAKNTVYLQMNSLKPEDTAVYYCAAARFAIVRGDYWGQGTQVTVSS | high polyreactivity |
| QVQLVESGGGLVQAGGSLRLSCAASGSICGWYVLGWYRQAPGKEMELVAAITWSAARTYYADSVKGRFTISRDNAKITVYLQMNSLKPEDTAVYYCAADHVSYQPSCRIFDYWGQGTQVTVSS | low polyreactivity |
| QVQLVESGGGLVQAGGSLRLSCAASGSIFRRYAIGWYRQAPGKERELVAAISGRGGSTYYADSVKGRFTISRDNAKNTVYLQMNSLKPEDTAVYYCNADRYYSHYSYYYWGQGTQVTVSS | high polyreactivity |
| QVQLVESGGGLVQAGGSLRLSCAASGRIFGYNPMGWYRQAPGKERELVAAITTSGGSTYYADSVKGRFTISRDNAKNTVYLQMNSQKPEDTAVYYCARDSLQVFYPYASDDYWGQGTQVTVSS | low polyreactivity |
| QVQLVESGGGLVHAGGSLRLSCAASGGTFDVNAMGWYRQAPGKERELVATISGGGSTNYADSVNGRFTISRDNAKNSVYLQINSLKPEDTAVYYCAAESEPIRNRERDYWGQGTQVSVSS | low polyreactivity |
| QVQLVESGGGLVQAGGSLRLSCAASGRIFALYAMGWYRQAPGKERELVAAITWRGGRTRYADSVKGRFTISRDNAKNTVYLQMNSLKPEDTAVYYCAKEYVKYQWDYGYWGQGTQVTVSS | high polyreactivity |
| QVQLVESGGGLVQAGGSLRLSCAASGRTFPGYAMGWYRQATGKERELVAGISYRGGSTYYADSVKGRITISRDTAKNTVYFQINSLKPVDTAVYYCARDYSRHKGDYWGQGTQVTVSS | low polyreactivity |
| QVQLVESGGGLVQAGGSLRLSCAASGSIFRAYAMGWYRQAPGKERELVATISWSGTSTSYADSVKGRFTISRDNAKNTVYLQMNSLKPEDTAVYYCAAGYASGPRPQTAYYYWGQGTQVTVSS | low polyreactivity |
| QVQLEESGGGLVQAGASLRLSCAASGRTFGSYAMGWYRQAPGKERELVAAISLSAGSTYYADSVKGRFTISRDNAKNTVYLQMNSLKPEDTAVYYCAAGTQWYSHVFIYYYWGQGTQVTVSS | low polyreactivity |
| QVQLVESGGGLVQAGGSLRLSCAASGFIFPANAMGWSRQAPGKERELVAAINYSGGSTYYADSVKGRFTISRDNAKNTVYLQMNSLKPEDTAVYYCNADFYVVGVTTVDLSGYDSWGQGTQVTVSS | low polyreactivity |
| QVQLVESGGGLVQAGGSLRLSCAASGSIFRVYAMRWYRQAPGKERELVAAISKSGSSTYYADSVKGRFTISRDNAKNTVYLQMNSLKPEDTAVYYCAARRVLGEYGYWGQGTQVTVSS | high polyreactivity |
| QLQLGESGGGLVQAAGSRRLSCAASGRTLCYYAMGWYSQAPGQDRELVAAITWTGGRTYYADSVKGRFTISRDNPKNSVYLQMNTLKPDDTAVDYCNAVYSPRYYVGGYDYWGQGTQVTVSS | high polyreactivity |
| QVQLVESGGGLVQAGGSLRLSCAASGSTFPSYVMGWSRQAPGKARELVAAISSSGGRTYYADSVKGRFTISRDNAKNTVYLQMNSLKPEDTAVYYCAAKRGPLVYDHDYWGQGTQVTVSS | high polyreactivity |

| Sequence | polyreactivity (PSR sort gate) |
| --- | --- |
| QVQLVESGGGLVQAGGSLRLSCSASGIILPVYAMGWYRQAPGKEMELVAAISRDGGSTYYSDSVKGLFTISRDNAKNNVYLLMNSLKPEDTAVYYCNAVWRGIYFNGKFDYWGQGTQVTVSS | high polyreactivity |
| QVQLVESGGGLVQAGGSLRLSCAASGSILSYYAMGWYRQAPGKERELVAAITGGGSTYYADSVKGRFTISRDNAKNTVYLQMNCLKPEVTAVYYCAALWWTYGIGYGYWGQGTLVTVSS | high polyreactivity |
| QVQLVESGGGLVQAGGSLRLSCAASGRTIDHNTMGWYRQAPGKERELVAAISWSGGTTYYADSVKGRFTISRDNEKNTVYLQMNSLKPEDTAVYYCAADRSRGSYGYQYDYWGQGTQVSVSS | low polyreactivity |
| QVQLVESGGGLVQAGGRLRLSCAASGNIFLDYTLGWYRQAPGKERELVAAISRGGSTYYADSVKGRFTISRDNAKNTVYLQMNSLKPEDTAVYYCNARCWEYFAHNYWGQGTQVTVSS | low polyreactivity |
| QVQLVASGGGLVQAGGSLRLSCAASGRTFKYNTMGWYRQAPGKERELVAVISRSGGRTYYADSVKGRFTISRDNAKNTVYLQMNSLKPEDTAVYYCAKGIPYADPQSAYDDYWGQGTQVTVSS | high polyreactivity |
| QVQLVESGGGLVQAGGSLRLSCAASGRTFNKNSMGWYRQAPGKERELVAAITTGGGTYYADSVKGRFTISRDNAKNTVYLQMNSLKPEDTAVYYCAARRRRWSGYWGQGTQVTVSS | high polyreactivity |
| QVQLVESGGRLVQAGGSLRLSCAASGIPFEYYAMGWYRQAPGKERELVAAIDTGGSTNYADSVKGRFTISRDNAKNTVYLQMNSLKPEDTAVYYCAADWSWWDGEDYHFEYDYWGQGTQVTVSS | low polyreactivity |
| QVQLVESGGGLVQAGGSLRLSCAASGRTFYGNAMGWYRQAPGTEREFVAAITRSGGTTYYADSVKGRFTISRDNAKNTVYLQMNSLKPEDTAVYYCARSYGWYRWAGYDYWGQGTQVTVSS | high polyreactivity |
| QVQLVDSGGGLVQAGGSLRLSCAASGRTFQFYVMGWYRQAPGKERELVASIRSGGSTNYADSVKGRFTISRDNAKNTVYLQMNSLKPEDTAVYYCATESYPADQDIPGSDYWGQGTQVTVSS | low polyreactivity |
| QVQLVESGGGLVQAGGSLRLSCAASGRTFYLYTMGWYRQAPWKERELVAGISWSGGSTYADSVKGRFTLSRDNAKNTVYLQMNSLKPEDTAVYYFNADDVRGLFYYWGQGTQVTVSS | low polyreactivity |
| HVQLVESGGGLVQAGGSLRLSCAASGSTFSAYAMGWDRQAPGKERELVASISYSGSSTYYADSVKGRFTISRDNAKNTVYLHMNSLNPEDTAVSSCAADDRYWGPGGPLSRWSRGMYYWGQGTQVTVSS | high polyreactivity |
| QVQLVESGGCLVQAGGSLRLSCASTGSIIYWYTMGWYRQAHGKDRELVAASSSIDGNTYYADSVKGRFTISRDNAKNTVYLQMNSLKPEDTAVYYCPAAYYNTDYYYWGQGTQVTVSS | low polyreactivity |
| QIQLVESGGGLVQAGGSLRLSCAASGFTFYANAMGWYRQAPGKERELVAAISSSGGSTYYADSVKGRFTISRDNAKNTVYLQMNSLKPEDTAVYYCNVYSRHWYRYEFDYWGQGTQVTVSS | high polyreactivity |
| QVQLVESGGGLVQAGGSLRLSCAASGYNFKPNTMGWYRQAPGKERELVAAITRGGRTKYADSVKGRFTISRDNAKNTVYLQMNSLKPEDTAVYYCATRVHKSTDGYDYWGQGTQVTVSS | high polyreactivity |
| QVQLVESGVGLVQAGGSLRLSCAASGRIFAYYAMGWYRQAPGKERELVAAISSGGTTNYADSVKGRFTISRDNAKNTVYLQMNSLKPEDTAVYYCNADGWRRSRQYYYWGQGTQVTVSS | low polyreactivity |
| QVQLVESGGGLVQAGGSLRLSCAASGSICAYAMGWYRQAPGKERELVASISTSTDITYADSVKGRFTISRDNAKNTVYLQMNSLKPEDTAVYYCAATYWQWWGWYDYWGQGTQVTVSS | high polyreactivity |
| QVQLVESGGGLVQAGGSLRLSCAASGSTFHSYVMGWYRPAPGKERELVAAITSRGGSTNYADSFKGRFTISRDNAKNTVYLQLNSLKPEDTAVYYCAADVYLGWSYFRYDYWGQGTQVTVSS | low polyreactivity |
| KVQLVESGGGLVQSGGRLRLSCAASGSTFQIYTMGWYRQAPGKERELVAAITNGGGSTYYADSVKGRFTISRDNAKNTVYFQMISLKPEDTAVYYCAAEQSYPLIILYDYWGQGTQVTVSS | low polyreactivity |
| QVQLVESGGGLVQAGGSLRLSCAASGSIFALYTMGWYRQAPGKERELVAAISRRGGKTYYADSVKGRFTISRDNAKNTVYLQMNSLKPEDTAVYYCNADRLRSTHDYWGQGTQVTVSS | high polyreactivity |
| QVQLVESGGGLVQAGGSLRLSCAASGNTFPSYVMGWYRQAPGKERELVAAINRGGGTYYADSVKGRFTISRDNAKNTVYLQMNSLKPEVTAVYYCAVRDQRHPYMDYWGQGTQVTVSA | low polyreactivity |
| QVQLVESGGGLVQAGGSLRLSCAASGRIFSLYAMGWYRPAPGKEMELVAAITGIGGSTYYADSVKGRFTISRDNAKNTVYLQMNSLKPDDTAVYYCAARYPATYPSMGYWGQGTQLTVSS | low polyreactivity |
